Article doi:10.1101/2020.02.11.943159 (bioRxiv, 2020)
Where no end group is shown, it is not given here.

Legend:
pS2 CTD diheptapeptide [1] = assay: fluorescence correlation spectroscopy
[2] = target: pS2pS5 CTD diheptapeptide; assay: fluorescence correlation spectroscopy
pS2 CTD diheptapeptide [3] = target: T1, pS2 CTD diheptapeptide (also: pS2: Ser2 phosphorylated, which heptad repeat(s) not given here); assay: fluorescence polarisation
T1 peptide: YSPTSPSYSPTSPS

[4] = target: T2, pS2pS7 CTD diheptapeptide (also: pS2pS7: Ser2 and Ser7 phosphorylated, which heptad repeat(s) not given here); assay: fluorescence polarisation
T2 peptide: YSPTSPSYSPTSPS

[5] = target: T3, pS2pS5 CTD diheptapeptide (also: pS2pS5: Ser2 and Ser5 phosphorylated, which heptad repeat(s) not given here); assay: fluorescence polarisation
T3 peptide: YSPTSPSYSPTSPS

PHF3 SPOC domain (1199-1356aa), bacterially expressed (from UniProt Q92576 1199-1356) (domain or fragment)
stoichiometry N (pS2 CTD diheptapeptide [1]): 1 | stoichiometry N [2]: 1

B1: PHF3 SPOC R1248A mutant, bacterially expressed (domain or fragment)
chain: STFLARLNFIWKGFINMPSVAKFVTKAYPVSGSPEYLTEDLPDSIQVGGAISPQTVWDYVEKIKASGTKEICVVRFTPVTEEDQISYTLLFAYFSSRKRYGVAANNMKQVKDMYLIPLGATDKIPHPLVPFDGPGLELHRPNLLLGLIIRQKLKRQHS
fold reduction of binding against SPOC WT (pS2 CTD diheptapeptide [3]): > 10 fold | fold reduction of binding against SPOC WT [4]: > 10 fold | fold reduction of binding against SPOC WT [5]: > 10 fold
